Assays:
[1] = molecular target: human chemokine CCL5 (RANTES), commercial recombinant (human) (UniProt P13501); experiment: ELISA; 50 pg chemokine mixed in solution with 2-400 ng recombinant M3 in 110 ul, 21 C, 1.5 h with gentle shaking, then applied to DuoSet sandwich ELISA plates; drop of OD492 against chemokine without M3 = % inhibition; IC25/IC50 = M3 concentration that removes 25 or 50% of the chemokine; three independent experiments
[2] = molecular target: human chemokine CXCL8 (IL-8), commercial recombinant (human); experiment: as above

Sequence of UniProt P13501 (P13501 24-91): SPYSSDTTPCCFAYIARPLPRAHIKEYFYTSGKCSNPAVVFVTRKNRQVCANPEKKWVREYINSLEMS

M3-E70A mutant of MHV-68 M3 protein, recombinant, C-terminal His-tag (natural protein)
IC25 [1]: 3.5 nM
IC50 [1]: 8.7 nM
IC25 [2]: 11.5 nM

M3-T272G mutant of MHV-68 M3 protein, recombinant, C-terminal His-tag (natural protein)
IC25 [1]: 30.2 nM
IC50 [1]: > 90 nM
IC25 [2]: 42.5 nM

wild-type M3 protein of murine gammaherpesvirus 68 (MHV-68), recombinant, C-terminal His-tag (natural protein)
IC25 [1]: 7.1 nM
IC50 [1]: 16.2 nM
IC25 [2]: 8.7 nM

— publication PMC6603146
